Assay results published in patent publication US20250002557A1 (SUZHOU LIGHT FERRY BIOMED, published 2025).

B1: VEGFR2-Fc (Met1-Glu764) (Fc fusion)
chain: ASVGLPSVSLDLPRLSIQKDILTIKANTTLQITCRGQRDLDWLWPNNQSGSEQRVEVTECSDGLFCKTLTIPKVIGNDTGAYKCFYRETDLASVIYVYVQDYRSPFIASVSDQHGVVYITENKNKTVVIPCLGSISNLNVSLCARYPEKRFVPDGNRISWDSKKGFTIPSYMISYAGMVFCEAKINDESYQSIMYIVVVVGYRIYDVVLSPSHGIELSVGEKLVLNCTARTELNVGIDFNWEYPSSKHQHKKLVNRDLKTQSGSEMKKFLSTLTIDGVTRSDQGLYTCAASSGLMTKKNSTFVRVHEKPFVAFGSGMESLVEATVGERVRIPAKYLGYPPPEIKWYKNGIPLESNHTIKAGHVLTIMEVSERDTGNYTVILTNPISKEKQSHVVSLVVYVPPQIGEKSLISPVDSYQYGTTQTLTCTVYAIPPPHHIHWYWQLEEECANEPSQAVSVTNPYPCEEWRSVEDFQGGNKIEVNKNQFALIEGKNKTVSTLVIQAANVSALYKCEAVNKVGRGERVISFHVTRGPEITLQPDMQPTEQESVSLWCTADRSTFENLTWYKLGPQPLPIHVGELPTPVCKNLDTLWKLNATMFSNSTNDILIMELKNASLQDQGDYVCLAQDRKTKKRHCVVRQLTVLERVAPTITGNLENQTTSIGESIEVSCTASGNPPPQIMWFKDNETLVEDSGIVLKDGNRNLTIRRVRKEDEGLYTCQACSVLGCAKVEAFFIIEGAQEKTNLE
notes: also called VEGFR2-Fc with the full extracellular domain; Full VEGFR2 extracellular domain; not shown: Fc part
B2: VEGF-C (ligand, UniProt P49767 112-227, looked up)
chain: AHYNTEILKSIDNEWRKTQCMPREVCIDVGKEFGVATNTFFKPPCVSVYRCGGCCNSEGLQCMNTSTSYLSKTLFEITVPLSQGPKPVTISFANHTSCRCMSKLDVYRQVHSIIRR
notes: Bought reagent
B3: VEGF-D (ligand, UniProt O43915 89-205, looked up)
chain: FAATFYDIETLKVIDEEWQRTQCSPRETCVEVASELGKSTNTFFKPPCVNVFRCGGCCNEESLICMNTSTSYISKQLFEISVPLTSVPELVPVKVANHTGCKCLPTAPRHPYSIIRR
notes: Bought reagent

Columns and labels:
VEGF-C = target: B2; test: ELISA binding to VEGF-C, absorbance 450 nm
Experimental: VEGF-A165, VEGF-C and VEGF-D polypeptide molecules were purchased from ACROBiosystems Inc. VEGF molecules at 100-300 ng/well prepared in PBS were used for coating overnight at 4° C., the next day, the plates were washed with PBS, and 1% BSA solution was added to block for 2 hours at room temperature, after which the plates were washed again with PBS. […] Goat anti-human Fc secondary antibody conjugated with horseradish peroxidase diluted in PBT was added, followed by incubation at room temperature and 300 rpm for 1 hour, after that, the plates were washed three times with PBST solution. Then TMB was added for color development, terminated with 5% hydrochloric acid solution, and finally, the OD values at 450 nm were read using a microplate reader.

VEGF-D [1] = target: B3; test: blocking ELISA: His-VEGF-D premixed with sample, binding to coated VEGFR2-Fc read with anti-His-HRP
Experimental: (§1) During the blocking period, each recombinant receptor molecule was serially diluted from high to low concentrations, mixed evenly with 100 ng/well of VEGF-C or VEGF-D (both labeled with His-tag), allowing for incubation at room temperature for 30 minutes. […] The plates were washed with PBST, then anti-polyhistidine secondary antibody conjugated with horseradish peroxidase was added to allow for incubation and binding at room temperature for 1 hour. Then the plates were washed with PBST, TMB was added for color development, terminated with 5% hydrochloric acid solution, and finally, the OD values at 450 nm were read using a microplate reader.

VEGF-D [2] = target: B3; test: blocking ELISA: His-VEGF-D premixed with sample, binding to coated VEGFR3-Fc read with anti-His-HRP
Experimental: (§2) During the blocking period, each recombinant receptor molecule was serially diluted from high to low concentrations, mixed evenly with 10 ng/well of VEGF-C or 500 ng/well of VEGF-D (both labeled with His-tag), allowing for incubation at room temperature for 30 minutes. […] The plates were washed with PBST, then TMB was added for color development, terminated with 5% hydrochloric acid solution, and finally, the OD values at 450 nm were read using a microplate reader.

VEGF-D [3] = target: B3; test: blocking ELISA: His-VEGF-D premixed with sample, binding to coated VEGFR2-Fc read with anti-His-HRP; remark: listed apart in the source
Experimental: as §1

VEGF-D [4] = target: B3; test: blocking ELISA: His-VEGF-D premixed with sample, binding to coated VEGFR3-Fc read with anti-His-HRP; remark: listed apart in the source
Experimental: as §2

VEGFR2-Fc (Met1-Glu764) [5] = target: B1; test: SPR Biacore T200 (Example 8)
VEGFR2-Fc (Met1-Glu764) [6] = target: B1; test: SPR, PDGF coupled to CM5 chip, VEGFR2-Fc in flow; row label printed PDGF-BR
Source text: Nevertheless, it was found in the preliminary detection experiments that PDGF family molecules (purchased from R&D Systems Inc.) were prone to produce non-specific binding in the chip, resulting in a pseudo-elevation in measured values, such that the detection could not be completed. Therefore, PDGF-AA, PDGF-AB, PDGF-BB and PDGF-CC molecules were separately loaded through a coupling reaction on a CM5 chip, followed by influx of the recombinant receptor molecules, thus effectively eliminating the impact of non-specific binding on affinity determination.

| Binder | Kd (VEGFR2-Fc (Met1-Glu764) [5]) [µM] | koff (VEGFR2-Fc (Met1-Glu764) [5]) [s⁻¹] | kon (VEGFR2-Fc (Met1-Glu764) [5]) [M⁻¹ s⁻¹] | also measured |
| --- | --- | --- | --- | --- |
| B1 | – | – | – | EC50 (VEGF-C): 0.269 µM; EC50 (VEGF-D [1]): 0.0315 µM; EC50 (VEGF-D [2]): 0.0334 µM; EC50 (VEGF-D [3]): 0.0315 µM; EC50 (VEGF-D [4]): 0.0334 µM |
| B2 | 0.0167 | 0.000452 | 27100 | – |
| B3 | 0.021 | 0.000673 | 32100 | – |
| PDGF-BB (ligand, UniProt P01127 82-190, looked up, Bought reagent) SLGSLTIAEPAMIAECKTRTEVFEISRRLIDRTNANFLVWPPCVEVQRCSGCCNNRNVQCRPTQVQLRPVQVRKIEIVRKKPIFKKATVTLEDHLACKCETVAAARPVT | – | – | – | Kd (VEGFR2-Fc (Met1-Glu764) [6]): 0.0141 µM |
